Results from patent publication US20140348819A1, “Methods of Treating Cancer” (Dana-Farber Cancer Institute, Inc., priority 2011, published 2014).

Tested on: six V600E BRAF melanoma cell lines
Assay: Screening of recombinant RTK ligands for ability to confer resistance to BRAFi (PLX4720) or MEKi (PD184352) (Table 4)
Type: cell-based, human
Set-up: ability of recombinant RTK ligand to confer resistance / ability of recombinant RTK ligand to confer resistance (screening value): scale not given here
Experimental: HGF is the only one that can substantially confer drug resistance to the cell lines.
The complexity of the tumor microenvironment is much greater than an in vitro co-culture system. Therefore, the inventors explored whether the activation of other RTKs could result in a similar resistance as that observed with the activation of MET. To this end, six V600E BRAF melanoma cell lines were tested for their resistance to either BRAFi (PLX4720) or MEKi (PD184352) after the addition of 22 RTK ligands that have the potential of activating almost all known RTKs. […] The activation of a selected subset of these RTKs was confirmed by western blotting and by high throughput tyrosine kinase phosphorylation profiling.

B1: Angiopoietin-1 (protein, UniProt Q15389 16-498, looked up)
Angiopoietin-1: HIGCSNQRRSPENSGRRYNRIQHGQCAYTFILPEHDGNCRESTTDQYNTNALQRDAPHVEPDFSSQKLQHLEHVMENYTQWLQKLENYIVENMKSEMAQIQQNAVQNHTATMLEIGTSLLSQTAEQTRKLTDVETQVLNQTSRLEIQLLENSLSTYKLEKQLLQQTNEILKIHEKNSLLEHKILEMEGKHKEELDTLKEEKENLQGLVTRQTYIIQELEKQLNRATTNNSVLQKQQLELMDTVHNLVNLCTKEGVLLKGGKREEEKPFRDCADVYQAGFNKSGIYTIYINNMPEPKKVFCNMDVNGGGWTVIQHREDGSLDFQRGWKEYKMGFGNPSGEYWLGNEFIFAITSQRQYMLRIELMDWEGNRAYSQYDRFHIGNEKQNYRLYLKGHTGTAGKQSSLILHGADFSTKDADNDNCMCKCALMLTGGWWFDACGPSNLNGMFYTAGQNHGKLNGIKWHYFKGPSYSLRSTTMMIRPLDF
ability of recombinant RTK ligand to confer resistance (A2058, PD184352 - 1 uM, ligand 1.56 ng/ml): 1.02
ability of recombinant RTK ligand to confer resistance (A2058, PD184352 - 1 uM, ligand 6.25 ng/ml): 1.03
ability of recombinant RTK ligand to confer resistance (A2058, PD184352 - 1 uM, ligand 25 ng/ml): 0.96
ability of recombinant RTK ligand to confer resistance (A2058, PD184352 - 1 uM, ligand 100 ng/ml): 0.99
ability of recombinant RTK ligand to confer resistance (A2058, PD184352 - 1 uM, ligand 400 ng/ml): 0.90
ability of recombinant RTK ligand to confer resistance (A2058, PLX4720 - 2 uM, ligand 1.56 ng/ml): 1.02
ability of recombinant RTK ligand to confer resistance (A2058, PLX4720 - 2 uM, ligand 6.25 ng/ml): 1.02
ability of recombinant RTK ligand to confer resistance (A2058, PLX4720 - 2 uM, ligand 25 ng/ml): 0.91
ability of recombinant RTK ligand to confer resistance (A2058, PLX4720 - 2 uM, ligand 100 ng/ml): 0.97
ability of recombinant RTK ligand to confer resistance (A2058, PLX4720 - 2 uM, ligand 400 ng/ml): 0.96
ability of recombinant RTK ligand to confer resistance (C32, PD184352 - 1 uM, ligand 1.56 ng/ml): 1.08
ability of recombinant RTK ligand to confer resistance (C32, PD184352 - 1 uM, ligand 6.25 ng/ml): 1.07
ability of recombinant RTK ligand to confer resistance (C32, PD184352 - 1 uM, ligand 25 ng/ml): 1.02
ability of recombinant RTK ligand to confer resistance (C32, PD184352 - 1 uM, ligand 100 ng/ml): 1.07
ability of recombinant RTK ligand to confer resistance (C32, PD184352 - 1 uM, ligand 400 ng/ml): 0.98
ability of recombinant RTK ligand to confer resistance (C32, PLX4720 - 2 uM, ligand 1.56 ng/ml): 1.20
ability of recombinant RTK ligand to confer resistance (C32, PLX4720 - 2 uM, ligand 6.25 ng/ml): 1.09
ability of recombinant RTK ligand to confer resistance (C32, PLX4720 - 2 uM, ligand 25 ng/ml): 1.14
ability of recombinant RTK ligand to confer resistance (C32, PLX4720 - 2 uM, ligand 100 ng/ml): 1.08
ability of recombinant RTK ligand to confer resistance (C32, PLX4720 - 2 uM, ligand 400 ng/ml): 0.99
ability of recombinant RTK ligand to confer resistance (Colo 829, PD184352 - 1 uM, ligand 1.56 ng/ml): 0.94
ability of recombinant RTK ligand to confer resistance (Colo 829, PD184352 - 1 uM, ligand 6.25 ng/ml): 0.97
ability of recombinant RTK ligand to confer resistance (Colo 829, PD184352 - 1 uM, ligand 25 ng/ml): 0.97
ability of recombinant RTK ligand to confer resistance (Colo 829, PD184352 - 1 uM, ligand 100 ng/ml): 0.93
ability of recombinant RTK ligand to confer resistance (Colo 829, PD184352 - 1 uM, ligand 400 ng/ml): 0.97
ability of recombinant RTK ligand to confer resistance (Colo 829, PLX4720 - 2 uM, ligand 1.56 ng/ml): 0.93
ability of recombinant RTK ligand to confer resistance (Colo 829, PLX4720 - 2 uM, ligand 6.25 ng/ml): 0.97
ability of recombinant RTK ligand to confer resistance (Colo 829, PLX4720 - 2 uM, ligand 25 ng/ml): 0.95
ability of recombinant RTK ligand to confer resistance (Colo 829, PLX4720 - 2 uM, ligand 100 ng/ml): 0.94
ability of recombinant RTK ligand to confer resistance (Colo 829, PLX4720 - 2 uM, ligand 400 ng/ml): 1.05
ability of recombinant RTK ligand to confer resistance (G-361, PD184352 - 1 uM, ligand 1.56 ng/ml): 0.98
ability of recombinant RTK ligand to confer resistance (G-361, PD184352 - 1 uM, ligand 6.25 ng/ml): 0.96
ability of recombinant RTK ligand to confer resistance (G-361, PD184352 - 1 uM, ligand 25 ng/ml): 0.92
ability of recombinant RTK ligand to confer resistance (G-361, PD184352 - 1 uM, ligand 100 ng/ml): 0.95
ability of recombinant RTK ligand to confer resistance (G-361, PD184352 - 1 uM, ligand 400 ng/ml): 0.75
ability of recombinant RTK ligand to confer resistance (G-361, PLX4720 - 2 uM, ligand 1.56 ng/ml): 1.02
ability of recombinant RTK ligand to confer resistance (G-361, PLX4720 - 2 uM, ligand 6.25 ng/ml): 0.96
ability of recombinant RTK ligand to confer resistance (G-361, PLX4720 - 2 uM, ligand 25 ng/ml): 0.97
ability of recombinant RTK ligand to confer resistance (G-361, PLX4720 - 2 uM, ligand 100 ng/ml): 0.83
ability of recombinant RTK ligand to confer resistance (G-361, PLX4720 - 2 uM, ligand 400 ng/ml): 0.84
ability of recombinant RTK ligand to confer resistance (SK-MEL-5, PD184352 - 1 uM, ligand 1.56 ng/ml): 1.03
ability of recombinant RTK ligand to confer resistance (SK-MEL-5, PD184352 - 1 uM, ligand 6.25 ng/ml): 0.93
ability of recombinant RTK ligand to confer resistance (SK-MEL-5, PD184352 - 1 uM, ligand 25 ng/ml): 0.95
ability of recombinant RTK ligand to confer resistance (SK-MEL-5, PD184352 - 1 uM, ligand 100 ng/ml): 0.92
ability of recombinant RTK ligand to confer resistance (SK-MEL-5, PD184352 - 1 uM, ligand 400 ng/ml): 0.87
ability of recombinant RTK ligand to confer resistance (SK-MEL-5, PLX4720 - 2 uM, ligand 1.56 ng/ml): 1.05
ability of recombinant RTK ligand to confer resistance (SK-MEL-5, PLX4720 - 2 uM, ligand 6.25 ng/ml): 1.02
ability of recombinant RTK ligand to confer resistance (SK-MEL-5, PLX4720 - 2 uM, ligand 25 ng/ml): 0.98
ability of recombinant RTK ligand to confer resistance (SK-MEL-5, PLX4720 - 2 uM, ligand 100 ng/ml): 1.03
ability of recombinant RTK ligand to confer resistance (SK-MEL-5, PLX4720 - 2 uM, ligand 400 ng/ml): 1.04
ability of recombinant RTK ligand to confer resistance (SK-MEL-28, PD184352 - 1 uM, ligand 1.56 ng/ml): 1.09
ability of recombinant RTK ligand to confer resistance (SK-MEL-28, PD184352 - 1 uM, ligand 6.25 ng/ml): 1.04
ability of recombinant RTK ligand to confer resistance (SK-MEL-28, PD184352 - 1 uM, ligand 25 ng/ml): 1.12
ability of recombinant RTK ligand to confer resistance (SK-MEL-28, PD184352 - 1 uM, ligand 100 ng/ml): 0.98
ability of recombinant RTK ligand to confer resistance (SK-MEL-28, PD184352 - 1 uM, ligand 400 ng/ml): 0.96
ability of recombinant RTK ligand to confer resistance (SK-MEL-28, PLX4720 - 2 uM, ligand 1.56 ng/ml): 1.05
ability of recombinant RTK ligand to confer resistance (SK-MEL-28, PLX4720 - 2 uM, ligand 6.25 ng/ml): 0.96
ability of recombinant RTK ligand to confer resistance (SK-MEL-28, PLX4720 - 2 uM, ligand 25 ng/ml): 1.02
ability of recombinant RTK ligand to confer resistance (SK-MEL-28, PLX4720 - 2 uM, ligand 100 ng/ml): 0.96
ability of recombinant RTK ligand to confer resistance (SK-MEL-28, PLX4720 - 2 uM, ligand 400 ng/ml): 0.99
